According to the nanobody polyreactivity screen of Harvey et al. (2022):

Assay: yeast display, Sf9 membrane polyspecificity reagent, FACS + sequencing; frameworks hold sequencing errors
Procedure, shortened: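 Nanobodies came from a synthetic yeast display library in Saccharomyces cerevisiae BJ5465, induced with galactose for 36–48 hours and stained for 1 hour at 4 °C with 10% biotinylated, detergent-solubilized Sf9 membrane reagent. Cells were enriched on streptavidin microbeads and then FACS-sorted, with low and high (top ~1%) gates set on anti-HA fluorescence for expression and streptavidin fluorescence for reagent binding. Each polyreactivity label reflects the gate a clone came from. Genes were amplified by colony PCR, sequenced by MiSeq 2 × 250 and filtered by CDR length.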
With “QVQLVESGGGLVQAGGSLRLSCAASGRTFSGYAMGWYRQAPGKEREFVAAITSSGGSTYYADSVKGRFTISRDNAKNTVYLQMNSLKPEDTAVYYCAARIRHFSVGYYYWGQGTQVTVSS” the “polyreactivity (PSR sort gate)” value was “high polyreactivity”. In the case of “QVQLVESGGGLVQAGGSLRLSCAASGRTFSGYAMGWYRQAPGKERELVAAINYSDGSTYYADSVKGRFTISRDNAKNTVYLQMNSLKPEDTAVYYCNKVYRYVRYAYDYWGQGTQVTVSS”, the “polyreactivity (PSR sort gate)” value is reported as “high polyreactivity”. With “QVQLVESGGGLVQAGGSLRLSCAASGRTFSGYAMGWYRQAPGKERELVAGINWSGDSTYYADSVKGRFTISRDNAKNTVYLQMNSLKPEDTAVYYCAASRSGTYDWGQGTQVTVSS” the “polyreactivity (PSR sort gate)” value was “high polyreactivity”. With “QVQLVESGGGLVQAGGSLRLSCAASGRTFSHYAMGWSRQAPGKERELVAASNTRTGTTYYADSVKGRFTISRDNAKNTVNLQMNSLKPEDTAVYYCNAVPYYSYQGWILVGDYDYWGQGTQVTVSS” the “polyreactivity (PSR sort gate)” value was “low polyreactivity”. With “QVQLVESGGGLVQAGGSLRLSCAASGRTFSINAMGWYRQAPGKERELVASISSRGTRTNYADSVKGRFTISRDNAKNTVYLQMNSLKPEDTAVYYCAADRYYPYYSAWREYEYWGQGTQVTVSS” the “polyreactivity (PSR sort gate)” value was “high polyreactivity”. In the case of “QVQLVESGGGLVQAGGSLRLSCAASGRTFSIYAMGWYRQAPGKERELVASITGRGTRTYYADSVKGRFTISRDNAKNTVYLQMNSLKPEDTAVYYCNARGKVQSSYDDDYWGQGTQVTVSS”, the “polyreactivity (PSR sort gate)” value is reported as “high polyreactivity”. With “QVQLVESGGGLVQAGGSLRLSCAASGRTFSKNAMGWYRQAPGKERELVADISRRGGRTYYADSVNGRFTISRDNAKNTVYLQMNSLKPEDTAVYYCAARTYRQPYYILDYYWGQGTQVTVSS” the “polyreactivity (PSR sort gate)” value was “high polyreactivity”. In the case of “QVQLVESGGGLVQAGGSLRLSCAASGRTFSKYAMGWYRQAPGKERELVAAITRSGSSTYYADSVKGRFTISRDNAKNTVYLQMNSLKPEDTAVYYCAADRYVRSSGSASDYGYWGQGTQVTVSS”, the “polyreactivity (PSR sort gate)” value is reported as “low polyreactivity”. In the case of “QVQLVESGGGLVQAGGSLRLSCAASGRTFSLYAMGWYRQAPGKERELVARIRSSTRTTYADSVKGRFTISRDNAKNTVYLQMNSLKPEDTAVYYCAADSGYRYYTKSVGYDYWGQGTQVTVSS”, the “polyreactivity (PSR sort gate)” value is reported as “high polyreactivity”. With “QVQLVESGGGLVQAGGSLRLSCAASGRTFSPYAMGWYRQAPVKERELVAAITSGGRTNYADSVKGRFTISRDNAKNTVYLQMNSLKPEDTAVYYCAARSGRYRWTRFDYWGQGTQVTVSS” the “polyreactivity (PSR sort gate)” value was “low polyreactivity”. In the case of “QVQLVESGGGLVQAGGSLRLSCAASGRTFSPYMGWYRQAPGKERELVAAISKSGGRTYYADSVKGRFTISRDNAKNTVYLQMNSLKPEDTAVYYCANTGNNYYYALYGYWGQGTQVTVSS”, the “polyreactivity (PSR sort gate)” value is reported as “low polyreactivity”. With “QVQLVESGGGLVQAGGSLRLSCAASGRTFSQYAMGWYRPAPGKERELVAAITRSGSRTYYADSVKGRFTISRDNAKNTVYLQMNSLKPEDTAVYYCAADGHAGYPIDEYYYWGQGTQVTVSS” the “polyreactivity (PSR sort gate)” value was “high polyreactivity”. With “QVQLVESGGGLVQAGGSLRLSCAASGRTFSQYAMGWYRQAPGKERELVAAITKNGGRTYYADSVKGRFTISRDNAKNTVYLQMNSLKPEDTAVYYCNARGGRYAGKLDYWGQGTQVTVSS” the “polyreactivity (PSR sort gate)” value was “high polyreactivity”. For “QVQLVESGGGLVQAGGSLRLSCAASGRTFSRNAMGWYRQAPGKERELVAAITSSGGSTYYADSVKGRFTISRDNAKNTVYLQMNSLKPEDTAVYYCNADATYRRGGGDYWGQGTQVTVSS”, the “polyreactivity (PSR sort gate)” value was “high polyreactivity”. With “QVQLVESGGGLVQAGGSLRLSCAASGRTFSRNAMGWYRQAPGKERELVATISSSGVRTYYADSVKGRFTISRDNAKNTVYLQMNSLKPEDTAVYYCAAAWRYYSAASGYDYWGQGTQVTVSS” the “polyreactivity (PSR sort gate)” value was “low polyreactivity”. With “QVQLVESGGGLVQAGGSLRLSCAASGRTFSRYAIGWYRQAPGKERELVASITSRGGSTYYADSVKGRFTISRDNAKNTVYLQMNSLKPEDTAVYYCNVKPTYSPRYWEDYWGQGTQVTVSS” the “polyreactivity (PSR sort gate)” value was “high polyreactivity”. In the case of “QVQLVESGGGLVQAGGSLRLSCAASGRTFSRYAMGWYRQAPGKEREFVAAITWSSGGTYYADSVKGRFTISRDNAKNTVYLQMNSLKPEDTAVYYCNYLRSRYYQDYNYWGQGTQVTVSS”, the “polyreactivity (PSR sort gate)” value is reported as “high polyreactivity”. In the case of “QVQLVESGGGLVQAGGSLRLSCAASGRTFSRYAMGWYRQAPGKERELVAAISRSGGITYYADSVKGRFTISRDNAKNTVYLQMNSLKPEDTAVYYCAAYVRGWGGDDYWGQGTQVTVSS”, the “polyreactivity (PSR sort gate)” value is reported as “high polyreactivity”. With “QVQLVESGGGLVQAGGSLRLSCAASGRTFSSYAMGWYRQAPGKERELVAAIRVSGGITYYADSVKGRFTISRDNAKNTVYLQMNSLKPEDTAVYYCNAGVDFIGGSYLKYDYWGQGTKVTVSS” the “polyreactivity (PSR sort gate)” value was “low polyreactivity”. In the case of “QVQLVESGGGLVQAGGSLRLSCAASGRTFSTNAMGWYSQAPGKERELVAAISARGGSTYYADSVKGRFTISRDNAKNTVYLLLTSLKPEDTAVDYCARRPGRYSYAFDYWGQGTQVTVSS”, the “polyreactivity (PSR sort gate)” value is reported as “high polyreactivity”. With “QVQLVESGGGLVQAGGSLRLSCAASGRTFSTYAMGWCRQAPGKERELVAAISRRGGSTYYADSVKGRFTISRDNAKYTVYLQMNSLKPEDTAVYYGAADSYDSDVNEYDYWGQGTQVTVSS” the “polyreactivity (PSR sort gate)” value was “high polyreactivity”. For “QVQLVESGGGLVQAGGSLRLSCAASGRTFSTYAMGWYRQAPGKERELVARITSSGGSTYYAHSVKGRFTISRDIAKNSVYLQMNCLKPEDTAVYYCAAYAHYAQRYYYWGQGTQVTVSS”, the “polyreactivity (PSR sort gate)” value was “high polyreactivity”. For “QVQLVESGGGLVQAGGSLRLSCAASGRTFSTYTMGWYRPAPGNERELVAAINWSGTSTYYADSVKGRFTISRDTAKNTVYLQMNSLKPEDTAFYYCNAGKWAYRWGYELNYWGQGTQVTVSS”, the “polyreactivity (PSR sort gate)” value was “high polyreactivity”. For “QVQLVESGGGLVQAGGSLRLSCAASGRTFSVNAMGWYRQAPGKERELVAAIAWDGGSTYYADSVKGRFTISRDNAKNTVYLQMNSLKPEDTAVYYCNKDLYYAYDYWGQGTQVTVSS”, the “polyreactivity (PSR sort gate)” value was “low polyreactivity”. In the case of “QVQLVESGGGLVQAGGSLRLSCAASGRTFSVNAMGWYRQAPGKERELVAAISWDGGSTYYADSVKGRFTISRDNAKNTVYLQMNSLKPEDTAVYYCNQDLYYAYDYWGQGTQVTVSS”, the “polyreactivity (PSR sort gate)” value is reported as “low polyreactivity”. In the case of “QVQLVESGGGLVQAGGSLRLSCAASGRTFSVNAMGWYRQAPGKERELVAAITSGGSTYYADSVKGRFTISRDNAKNTVYLQMNSLKPEDTAVYYCNADLEPYDYWGQGTQVTVSS”, the “polyreactivity (PSR sort gate)” value is reported as “low polyreactivity”. In the case of “QVQLVESGGGLVQAGGSLRLSCAASGRTFSVNAMGWYRQAPGKERELVAAITSGGSTYYADSVKGRFTISRDNAKNTVYLQMNSLKPEDTAVYYCNAVGRLRRSRLRMDYWGQGTQVTVSS”, the “polyreactivity (PSR sort gate)” value is reported as “high polyreactivity”. With “QVQLVESGGGLVQAGGSLRLSCAASGRTFSWYAMGWYRQAPGKEREFVAAITSGGSTYYADSVKGRFTISRDNAMNTVYLQMNSLKPEDTAVYYCAAYGYWGQGTQVTVSS” the “polyreactivity (PSR sort gate)” value was “high polyreactivity”. For “QVQLVESGGGLVQAGGSLRLSCAASGRTFSYNAMGWYRQAPGKERELVAAITGRGGSTYYADSVKGRFTISRDNAKHTVYLQMNSLKPEDTAVYYCNAPPGTFQWQGHSDYWGQGTQVTVSS”, the “polyreactivity (PSR sort gate)” value was “low polyreactivity”. With “QVQLVESGGGLVQAGGSLRLSCAASGRTFSYNAMGWYRQAPGKERELVAAITSSGGGTSYADSVKGRFTISRDNAKNTVYLQMNSLKPEDTAVYYCNRVLPHPDGYGVGARGYWGQGTQVSVSS” the “polyreactivity (PSR sort gate)” value was “high polyreactivity”. For “QVQLVESGGGLVQAGGSLRLSCAASGRTFSYNAMGWYRQAPGTERELVAAISGGGSTDYADSVKGRFTISRDNAKNTVYLQMNSLKPEDTAVYYCAAGWYVYTFFEFYVFDGDYWGQGTQVTVSS”, the “polyreactivity (PSR sort gate)” value was “low polyreactivity”. For “QVQLVESGGGLVQAGGSLRLSCAASGRTFSYSAMGWYRQAPGKERELVAAISSGGSTNYADSVKGRFTISRDNAKNTVYLQMNSLKPEDTAVYYCATSSIWGSGRVRWVTYYYWGQGTQVTVSS”, the “polyreactivity (PSR sort gate)” value was “low polyreactivity”. In the case of “QVQLVESGGGLVQAGGSLRLSCAASGRTFSYSAMGWYRQAPGKERELVAAITGSGGRTYYADSVKGRFTISRDNAKNTVYLQMNSLKPEDTAVYYCAARYLYEGQLRPIRYYHYGYWGQGTQVTVSS”, the “polyreactivity (PSR sort gate)” value is reported as “high polyreactivity”. With “QVQLVESGGGLVQAGGSLRLSCAASGRTFSYYAMGCYRQAPGKERELVASISSGGSTKYADSVKGRFTISRDNAKNTVYLQMNSLKPEDTAVYYCAVTYWYGRVLYGYWGQGTQVTVSS” the “polyreactivity (PSR sort gate)” value was “high polyreactivity”. With “QVQLVESGGGLVQAGGSLRLSCAASGRTFSYYAMGWYRQAPGKERELVAAIDDNGGTTYADSVKGRFTISRDNATNTVYLQINSLKPEDTAVYYCAKRVSYFWALRRGYWGQGTKVTVSS” the “polyreactivity (PSR sort gate)” value was “high polyreactivity”. With “QVQLVESGGGLVQAGGSLRLSCAASGRTFSYYAMGWYRQAPGKERELVAAIRRSSGTTYYADSVKGRFTISSDNAKNTVYLQMNSLKPEDTAVYYCNARSRRASIKRDYWGQGTQVTLSS” the “polyreactivity (PSR sort gate)” value was “high polyreactivity”. For “QVQLVESGGGLVQAGGSLRLSCAASGRTFSYYAMGWYRQAPGKERELVAAISSGDSTYYADSVKGRFTFSRDNAMNTVYLQMNSLKPEDTAVYYCASYPSLYYTKYDYWGQGTQVTVSS”, the “polyreactivity (PSR sort gate)” value was “high polyreactivity”. For “QVQLVESGGGLVQAGGSLRLSCAASGRTFSYYAMGWYRQAPGKERELVAAISSGGSTYYADSVKGRFTISRDNAKNTVYLQMNRLKPEDTAVYYCAKEYKQALGHVSFDYWGQGTQVTVSS”, the “polyreactivity (PSR sort gate)” value was “low polyreactivity”. With “QVQLVESGGGLVQAGGSLRLSCAASGRTFSYYTMGRYRQAPGKERELVARISNRGTNTYYADSVKGRFTISRDHAKNSVNLQMNSLKTEDTAVFYCAKYYYTSIVGYDYWGQGTQVTVSS” the “polyreactivity (PSR sort gate)” value was “low polyreactivity”. With “QVQLVESGGGLVQAGGSLRLSCAASGRTFSYYTMGWSRQAPGKERQLVARISNRGTNTYYADSVKGRFTISRDNAKNTVYLQMNSLIPEDTGVYYCAKYYYTSIVGYDSWGQGTQVTVSS” the “polyreactivity (PSR sort gate)” value was “low polyreactivity”. In the case of “QVQLVESGGGLVQAGGSLRLSCAASGRTFSYYTMGWYRQAPGKERDLVAGIRSAGSTYYADSVKGRFTISRDNAKNTVYLLMNSLKPEDTAVYYCAARPYGGGRRSIYYYWGQGTQVTVSS”, the “polyreactivity (PSR sort gate)” value is reported as “high polyreactivity”. In the case of “QVQLVESGGGLVQAGGSLRLSCAASGRTFTAYAMGWYRQAPGKERELVAAITTSGGTTYYADSVKGRFTISRDNAKNTVYLQMNSLKPEDTAVYYCAADVVVSWWLIYDYWGQGTQVTVSS”, the “polyreactivity (PSR sort gate)” value is reported as “low polyreactivity”. In the case of “QVQLVESGGGLVQAGGSLRLSCAASGRTFTAYAMGWYRQAPGKERELVAAITVSTSSTFYADSVKGRFTISRDNAKNTVYLQMNSLKPEDTAVYYCNKETLYPLDYWGEGTQVTVSS”, the “polyreactivity (PSR sort gate)” value is reported as “low polyreactivity”.
